# Source: patent US6750057 (UNIVERSITY OF FLORIDA, dated 2004)
# Target: Native MBP (UniProt P0AEX9 27-392 = MBP)
# Assay: in vitro pull-down on amylose resin, SDS-PAGE and autoradiography
# Procedure: The ^35S-labeled XA21 kinase was then incubated with resin-bound MBP or MBP fusion proteins (1 ug) in the binding buffer [20 mM Hepes (pH 7.4), 1 mM EDTA, 5 mM MgCl_2, 1 mM DTT, 0.1% Triton X-100, 1 mg/ml BSA, 1× complete protease inhibitors (Roche Diagnostics)] for 120 min at 4° C. with gentle shaking. After washing with the washing buffer [20 mM Hepes (pH 7.4), 1 mM EDTA, 5 mM MgCl_2, 1 mM DTT, 0.1% Triton X-100] five times, the bound proteins were eluted with the washing buffer supplemented with 10 mM maltose and resolved by 8% SDS-PAGE according to Laemmli. Laemmli, Nature 227, 680 (1970). The gel was stained with Coomassie brilliant blue R-250, dried, and exposed to X-ray film.
binder,measurement,value
"35S-labeled XA21 kinase (enzyme, 35S-methionine labelled by in vitro transcription/translation. The label does not change the letters., Made with the TnT kit from a pET-28a construct; also called XA21 protein labeled with 35S; not shown: Vector-encoded N-terminal leader of pET-28a (His/T7 tag and the few residues from the BamHI/SalI primer sites)) HKRTKKGAPSRTSMKGHPLVSYSQLVKATDGFAPTNLLGSGSFGSVYKGKLNIQDHVAVKVLKLENPKALKSFTAECEALRNMRHRNLVKIVTICSSIDNRGNDFKAIVYDFMPNGSLEDWIHPETNDQADQRHLNLHRRVTILLDVACALDYLHRHGPEPVVHCDIKSSNVLLDSDMVAHVGDFGLARILVDGTSLIQQSTSSMGFIGTIGYAAPEYGVGLIASTHGDIYSYGILVLEIVTGKRPTDSTFRPDLGLRQYVELGLHGRVTDVVDTKLILDSENWLNSTNNSPCRRITECIVWLLRLGLSCSQELPSSRTPTGDIIDELNAIKQNLSGLFPVCEGGSLEF",binding result,no binding (tested: 1 ug resin-bound protein)
